Publication PMC3744435

Molecular target: capsid triplex (heterotrimer of two mCP and one mC-BP) (human cytomegalovirus (HCMV) strain AD169) (UniProt P16728)
Assay: cryo-EM structure

tegument protein pp150 (from UniProt P08318 1-1048) (natural protein)
stoichiometry N (copies per triplex): 3
